Residue numbers refer to the chain shown, from its start.
Experiments:
[1] = target: T1, CD3 on (CD3+) T cells (human, UniProt P07766 23-207; P09693 23-182; P04234 22-171; P20963 22-164); assay: flow cytometry; 10 µg/mL scFv on 50,000 CD3+ T cells; anti-FLAG FITC detection
T1 construct: whole, on cells; also called CD3 protein multi-subunit complex

[2] = target: T2, rhBCMA-Fc Chimera (R&D Systems 193-BC-050) (human, Disulfide-linked homodimer (the 25th table, row 5); one copy of the chain is given.); assay: BLI (Octet) scouting; rhBCMA-Fc captured on AHC sensor; analyte 100 nM; 1:1 local fit
T2 construct: Disulfide-linked dimer, bought; also called immobilized BCMA

[3] = target: T2, rhBCMA-Fc Chimera (R&D Systems …); assay: BLI full kinetics; rhBCMA-Fc captured on AHC sensor; analyte 1.56-50 nM; bivalent (avidity)
[4] = target: T3, Human CD3ε&CD3δ heterodimeric Fc Chimera (ACRO Biosystems CDD-H52W0) (human, UniProt P07766 22-126, Disulfide-linked heterodimer through the Fc parts that are left off.); assay: BLI full kinetics; rhCD3ε/δ-Fc captured on AHC sensor; analyte 15.6-125 nM; monovalent (affinity)
T3 construct: Disulfide-linked heterodimer, bought; also called rhCD3ε/δ-Fc; rhCD3ε/CD3δ-Fc

[5] = target: T3, Human CD3ε&CD3δ heterodimeric Fc …; assay: BLI (Octet) scouting; rhCD3ε/δ-Fc captured on AHC sensor; analyte 2000 nM; 1:1 local fit

T1 sequence (P07766 23-207, form in doubt, chain 1 of 4): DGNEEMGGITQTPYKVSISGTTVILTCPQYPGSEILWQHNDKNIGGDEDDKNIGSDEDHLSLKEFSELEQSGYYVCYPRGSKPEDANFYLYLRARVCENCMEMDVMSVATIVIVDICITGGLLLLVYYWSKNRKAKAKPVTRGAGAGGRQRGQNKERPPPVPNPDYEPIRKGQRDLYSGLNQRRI
T1 sequence (P09693 23-182, form in doubt, chain 2 of 4): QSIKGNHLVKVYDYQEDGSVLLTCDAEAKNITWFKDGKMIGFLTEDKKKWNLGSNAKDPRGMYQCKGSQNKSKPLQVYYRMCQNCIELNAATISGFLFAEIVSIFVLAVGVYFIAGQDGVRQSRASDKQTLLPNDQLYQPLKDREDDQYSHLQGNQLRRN
T1 sequence (P04234 22-171, form in doubt, chain 3 of 4): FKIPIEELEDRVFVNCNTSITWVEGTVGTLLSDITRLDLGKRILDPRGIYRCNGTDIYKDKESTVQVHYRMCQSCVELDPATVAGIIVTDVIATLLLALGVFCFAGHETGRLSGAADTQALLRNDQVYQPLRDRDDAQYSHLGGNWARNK
T1 sequence (P20963 22-164, form in doubt, chain 4 of 4): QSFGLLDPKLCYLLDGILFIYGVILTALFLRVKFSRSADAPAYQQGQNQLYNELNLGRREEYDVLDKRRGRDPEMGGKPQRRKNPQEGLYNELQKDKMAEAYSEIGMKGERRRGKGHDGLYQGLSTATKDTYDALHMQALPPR
T3 sequence (P07766 22-126 limits assumed, stated change not applied, chain 1 of 2): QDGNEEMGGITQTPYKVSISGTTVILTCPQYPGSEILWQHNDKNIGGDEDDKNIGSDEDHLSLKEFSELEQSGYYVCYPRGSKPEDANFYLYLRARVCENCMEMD
T3 sequence (delta, as listed by the source mutant limits assumed, chain 2 of 2): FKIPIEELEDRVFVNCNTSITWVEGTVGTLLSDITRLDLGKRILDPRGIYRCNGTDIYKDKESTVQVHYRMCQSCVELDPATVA
T2 sequence (chain, as listed by the source mutant limits assumed): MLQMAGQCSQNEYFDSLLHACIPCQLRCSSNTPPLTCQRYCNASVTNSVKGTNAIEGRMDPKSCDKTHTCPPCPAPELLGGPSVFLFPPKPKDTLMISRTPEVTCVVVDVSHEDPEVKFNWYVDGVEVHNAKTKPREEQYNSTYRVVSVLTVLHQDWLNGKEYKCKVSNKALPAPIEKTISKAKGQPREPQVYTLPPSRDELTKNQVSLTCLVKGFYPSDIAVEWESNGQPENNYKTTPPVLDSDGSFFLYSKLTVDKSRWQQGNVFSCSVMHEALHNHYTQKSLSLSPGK

B1: Vulcanodon-1 anti-CD3 scFv (SEQ ID NO: 2), FLAG and His-tagged version (scFv)
scFv: QVQLVQSGAEVKKPGASVKVSCKASGYTFTRYTMHWVRQAPGQGLEWIGYINPSKGYTNYNQKFKGRVTMTADKSTSTAYMELSSLRSEDTAVYYCARYYDDHYSLDYWGQGTLVTVSSGGGGSGGGGSGGGGSGGGGSEIVMTQSPATLSLSPGERVTLSCRASSSVSYMNWYQQKSGTSPKRWIYDTSKVASGVPYRFSGSGSGTDFTLTISSLQAEDEATYYCQQWSSNPLTFGQGTKLEIK
notes: also called Var 1; not shown: FLAG and His tags
CD3 Binding (increase in MFI) [1]: 20 MFI

B2: Vulcanodon-4 anti-CD3 scFv (SEQ ID NO: 5), FLAG and His-tagged version (scFv)
scFv: B1 scFv with R38K, A40R, E140Q, M143L, T149I, L150M, L152A, R157K, L160M, S161T
notes: also called Var 4; not shown: FLAG and His tags
CD3 Binding (increase in MFI) [1]: 27 MFI

B3: Vulcanodon-2 anti-CD3 scFv (SEQ ID NO: 3), FLAG and His-tagged version (scFv)
scFv: B1 scFv with K55R, L114T, Q238A
notes: also called Var 2; not shown: FLAG and His tags
CD3 Binding (increase in MFI) [1]: 24 MFI

B4: Vulcanodon-3 anti-CD3 scFv (SEQ ID NO: 4), FLAG and His-tagged version (scFv)
scFv: QVQLVQSGAEVKKLGASVKVSCKASGYTFTRYTMHWVKQAPGQGLEWIGYINPSRGYTNYNQKFQGRVTMTRDTSISTAYMELSRLRSDDTAVYYCARYYDDHYSLDYWGQGTLVTVSSGGGGSGGGGSGGGGSGGGGSDIQMTQSPSSLSASVGDRVTITCRASSSVSYMNWYQQKSGTSPKRWIYDTSKVASGVPYRFSGSGSGTDFTLTISSLQPEDFATYYCQQWSSNPLTFGAGTKLEIK
notes: also called Var 3; not shown: FLAG and His tags
CD3 Binding (increase in MFI) [1]: 24 MFI

B5: Vulcanodon-C2 anti-CD3 scFv (SEQ ID NO: 8), FLAG and His-tagged version (scFv)
scFv: QVQLQQSGAELARPGASVKMSCKTSGYTFTRYTMHWVKQRPGQGLEWMGIINPSGGSTSYAQKFKDKATLTTDKSSSTAYMQLSSLTSEDSAVYYCARYYDDHYSLDYWGQGTTLTVSSGGGGSGGGGSGGGGSGGGGSQIVLTQSPAIMSASPGEKVTMTCRASSSVSYMNWYQQKSGQAPRLLIYGASTRATGIPYRFSGSGSGTSYSLTISSMEAEDAATYYCQQWSSNPLTFGAGTKLELK
notes: also called Var CDR2; not shown: FLAG and His tags
CD3 Binding (increase in MFI) [1]: ~0 MFI

B6: Vulcanodon-C1 anti-CD3 scFv (SEQ ID NO: 7), FLAG and His-tagged version (scFv)
scFv: QVQLQQSGAELARPGASVKMSCKTSGYTFTGYYMHWVKQRPGQGLEWIGYINPSRGYTNYNQKFKDKATLTTDKSSSTAYMQLSSLTSEDSAVYYCARYYDDHYSLDYWGQGTTLTVSSGGGGSGGGGSGGGGSGGGGSQIVLTQSPAIMSASPGEKVTMTCRASQSISSYLNWYQQKSGTSPKRWIYDTSKVASGVPYRFSGSGSGTSYSLTISSMEAEDAATYYCQQWSSNPLTFGAGTKLELK
notes: also called Var CDR1; not shown: FLAG and His tags
CD3 Binding (increase in MFI) [1]: ~0 MFI

B7: bispecific antibody of SEQ ID NO: 138 (with a C-terminal Myc-Flag tag of SEQ ID NO: 141) (bispecific antibody)
chain: DIVLTQSPASLAVSPGQRATISCRASESVSFLGINLIHWYQQKPGQPPKLLIYLASNLETGVPARFSGSGSGTDFTLTISSVEPEDTANYYCLQSRTLPRTFGQGTKVEIKGSTSGSGKPGSGEGSTKGQIQLVQSGPELKKPGGSVKISCKASGYTFTSYSINWVRQAPGKGLEWVGWINTETREPAYAQGFTGRFTFSADTSKSMAYLQINSLRAEDTAVYYCALDYLYSLDFWGQGTLVTVSSGGGGSQVQLVQSGAEVKKPGASVKVSCKASGYTFTRYTMHWVRQAPGQGLEWIGYINPSKGYTNYNQKFKGRVTMTADKSTSTAYMELSSLRSEDTAVYYCARYYDDHYSLDYWGQGTLVTVSSGGGGSGGGGSGGGGSGGGGSEIVMTQSPATLSLSPGERVTLSCRASSSVSYMNWYQQKSGTSPKRWIYDTSKVASGVPYRFSGSGSGTDFTLTISSLQAEDEATYYCQQWSSNPLTFGQGTKLEIKSSGGSGGSGGSGGSGGSGGSGGSGGSGGSGSDIVLTQSPASLAVSPGQRATISCRASESVSFLGINLIHWYQQKPGQPPKLLIYLASNLETGVPARFSGSGSGTDFTLTISSVEPEDTANYYCLQSRTLPRTFGQGTKVEIKGSTSGSGKPGSGEGSTKGQIQLVQSGPELKKPGGSVKISCKASGYTFTSYSINWVRQAPGKGLEWVGWINTETREPAYAQGFTGRFTFSADTSKSMAYLQINSLRAEDTAVYYCALDYLYSLDFWGQGTLVTVSSGGSLEQKLISEEDLAANDILDYKDDDDKV
notes: Single chain: anti-BCMA scFv, anti-CD3 scFv, anti-BCMA scFv; also called DC10xP15-MycDDK; DC10xP15
Kd [2]: 0.116 nM
Kd [3]: < 0.001 nM
koff [3]: < 1e-07 s⁻¹
kon [3]: 226000 M⁻¹ s⁻¹
Kd [4]: 3.02 nM
koff [4]: 0.00199 s⁻¹
kon [4]: 660000 M⁻¹ s⁻¹
Kd [5]: 9.76 nM

Reference: patent publication US20240344030A1 (CARTESIAN THERAPEUTICS, published 2024)
